Measurements from the DeepSol protein solubility set.

Assay: soluble on expression in E. coli; label from the status in PepcDB or PDB records

Sequence	soluble on expression in E. coli
MAQRVQLTATVSENQLGQRLDQALAEMFPDYSRSRIKEWILDQRVLVNGKVCDKPKEKVLGGEQVAINAEIEEEARFEPQDIPLDIVYEDEDIIIINKPRDLVVHPGAGNPDGTVLNALLHYYPPIADVPRAGIVHRLDKDTTGLMVVAKTVPAQTRLVESLQRREITREYEAVAIGHMTAGGTVDEPISRHPTKRTHMAVHPMGKPAVTHYRIMEHFRVHTRLRLRLETGRTHQIRVHMAHITHPLVGDPVYGGRPRPPKGASEAFISTLRKFDRQALHATMLRLYHPISGIEMEWHAPIPQDMVELIEVMRADFEEHKDEVDWL	soluble
MAQSFLLMGALIQHHLKGEKADLLTPEKLLEAANKQGTVPSRVRYQWMEDEETGRLKAVGYHTSMESGRDQVRVRLLKHDFPNNRYEFWEEGATGPTILWTPDNPGIELPTDTAHGEQPVIPSAIPGLEIPEMDDVSILATPMPDEKDFRDYILVFPENAFPPIYVYLSKKIDTPIWLEHHHHHH	soluble
MAQTEKLTDYVNPFVGTDGYGNVYPGAQIPFGGIQISPDTDSRFYDAASGYKYNHLTLMGFSLTHLSGTGIPDLGDFLFIPGTGEMKLEPGTHEDPDQGYRSRYSHDKEWASPNYYAVELADYGVKAEMTSGVRSGMFRFTYPESDNAFIMIDMNHTLWQSCEWSNLRMINDSTITGYKLVKGWGPERHVYFTATFSKKLEHHHHHH	not soluble
MARARARPGAVMSISGGLVRRRAEGRPLPAASAMSTVTLHRVLRASPERVYRAFLDAAALSKWLPPHGFTNTVEHLDARVGGTFRMAFTQFGSGQRHAFGGTYRELVPNALLRYDDVFDDPSLPGTLLTTVRLLPLPCGTDLHVVQEGIPEQIPLHACYLGWQESLTLLALLVEAQRAELEHHHHHH	not soluble
MARKIRKLRKAEVNYITIKATLEAEKKEDYLKLALLTEKFKRAVELSIRLQLKGVKKSEGVKEVSRLILNNWWYSDSAWDYAKMLRKGAERS	not soluble
MARLNVNPTRMELSRLKKQLTTATRGHKLLKDKQDELMRRFIALVKENNELRIQVEQEVTDALSNFVLANATLNEAFIEELVAIPAEKVELEIIEQNILSVPVPKMIFDYDESVQEAPLDYGYVNSNSELDQAFAKISSILPKLLALANVEKTCQLLSKEIEKTRRRVNALEYMTIPQLEETIYYIQMKLEENERGEITRLIKIKSMNKENLEHHHHHH	not soluble
MARNAEKAMTALARFRQAQLEEGKVKERRPFLASECTELPKAEKWRRQIIGEISKKVAQIQNAGLGEFRIRDLNDEINKLLREKGHWEVRIKELGGPDYGKVGPKMLDHEGKEVPGNRGYKYFGAAKDLPGVRELFEKEPLPPPRKTRAELMKAIDFEYYGYLDEDDGVIVPLEQEYEKKLRAELVEKWKAEREARLARGEKEEEEEEEEEINIYAVTEEESDEEGSQEKGGDDSQQKFIAHVPVPSQQEIEEALVRRKKMELLQKYASETLQAQSEEARRLLGY	soluble
MARPETESKTIFGKRLRYVRLALGDPSREALAKSFSMTKNSIAFYERGEREPNLSVLQTYRTLYGVNINWLLTGQGKMFDTEYTKGDFDWNYFIKKIEGLEEILSNSDRSEKLNQEKIESSYEKLQQYLSRQGSTNRYTPKAATSLIDMKAKMANSYALSLFIDLLIRSISQKEVVANQ	not soluble
MARPQSKKKQTQVARRPRRRGRWVPPSRLIAGRDFPEFLRQAVLLSGSLRQAARKLRVSYSTLRGWLGRRCEEPPEGERDLLAGHVAAIRTELDVAAEHLAIVRGQLDALERGDDG	not soluble
MARQHRLRAGRPVAAEACMSGGETGRTLRALFMSVSLGAGHDQAQQAVKQAFAERGVELLGAEHDSVEYLSTFERSFTVDLYEFELRYAPWLYRGFYWLTDQDQPWNIISRMFTWLGMGAFKDELRELRPEVVINSFWAPAAVCDTLRAQTGQRFLNCLIVTDYRAHLHWARRETDLLMVASEETRRQMLERGVRPEQVEVTGIPISPAFREVLAADRWALRAELFSEMSLRPGVPLLLLSGGGRGHYAAAADVLTELGNLGRAVQVLVPASRQGEGTETIGGATVHHLGFRRDLPRLLAASDLVVGKAGGLTVAEATALGVPLVIYAPIPGQEEHNADFLERHGAGLWARARHDVRPLVLRALDPAEHARLSAGARAVGIPDAADRVAGAILRRLGDGLGDELGDSRGPA	not soluble
MASEHHEALNLYAVRVARGEGVKQDFARAASLFRRADRCGFNCEPVYDDMVNDFRDKAFGMELVSSKRAFLKALRPETAEARCTVGEAFIGQGDADSLRTGRELLTSAATLGSGKAMYLLGVLCRDGKGVAANAERAFMWFSLAASCGFAKAESERVNAEGKLDDAGRTRAMQLAARWRRQYLAPVCLEHHHHHH	not soluble
MASIDRFQVMQEPELKILEHWFENEDTRRRMDGMLLLDEWYARVNKDKHDTVIMAYDGQLPAGMVVIEFGEERTYIGLIVNPLYRLKGYGKQILQKLMTEPDFTSVREWVACIEEDNRISLACFQAAGFTLEDTEPDEDGFLTLILRNLEHHHHHH	not soluble
MASLYLGLGFLVSMHSTKPEKADIIVILGGDDGLRVSKGGDLYKAGYAKHVLLTGIDSRYYRPNHPNWRERKLMARGVPRKHIIVDTWSETSWEEAENTSDLMDKNGWKSALVVSDPPHMLRLNKTWKKAFAGTNKRFRLVATEPSWWNPLLWWRNPISYRFVINELKKNIYYLVTYYLEHHHHHH	not soluble
MASMTGGQQMGRGSMAGVLPAHGTQHGIRLPLRSGLGGAPLGLRLPRETDEEPEEPGKKGSFVEMVDNLRGKSGQGYYVEMTVGSPPQTLNILVDTGSSNFAVGAAPHPFLHRYYQRQLSSTYRDLRKGVYVPYTQGKWEGELGTDLVSIPHGPNVTVRANIAAITESDKFFINGSNWEGILGLAYAEIARPDDSLEPFFDSLVKQTHVPNLFSLQLCGAGFPLNQSEVLASVGGSMIIGGIDHSLYTGSLWYTPIRREWYYEVIIVRVEINGQDLKMDCKEYNYDKSIVDSGTTNLRLPKKVFEAAVKSIKAASSTEKFPDGFWLGEQLVCWQAGTTPWNIFPVISLYLMGEVTNQSFRITILPQQYLRPVEDVATSQDDCYKFAISQSSTGTVMGAVIMEGFYVVFDRARKRIGFAVSACHVHDEFRTAAVEGPFVTLDMEDCGYNIPQTDES	soluble
MASSIDPLTRLHGILSSYLSEVLGVDRSVVERLLAPPPRKEYGDLGFPLMRFARSSNASADSIVESLRGKLWERGITWASPTLEAGYLNIVFDVEKLGDEVFRLLASGWRPSTARTSRPETIVVEHTSANPIHPLHLGHARNSSLGDALARLLEARGHRVNRRFYVDDVGRQAVVASLGFKLSGVTPRELASRMGVKVDHAVGWVYAVTHNALETVTARKRGDTSKVDEALSTLARLKERGDREVFDRILEAVGSLDDPEGLVSEMMRKYERGEEPEKSLIRGVVSAVLEGFRETLGRFGVDFDDWDWESDLLWSGLVNKIIEEARRSPFLTTHKDAIALDIPRIVREVLARDPEAASTIKLPRSLEIPPLILVRSDGTTLYTTRDLAYSVYKFRVTGADRVINVIGADQRLPQLQIRLALLGLGYRREALNMMHYDYEIVSLPGRRMSSRRGEYVTLDELLEMAKARSVREVESRNPGADRDWIESTAEKIAVGAVRFALVRPGRLKPITLDVERILDLKENTAPYLQYTYARASSILEKHGEIDYLKAHPASLEEGSRRELFVEALRFPLVSAKAADDLAPEDLASYLLRLADMFNSWYQKDSVIHEEWEGARHAKAALVLLVKSVIGEGLRLLGVEPLEKM	soluble
MASSVVFAATGSLSVPPLKSRRFYVNSSLDSDVSDMSVNAPKGLFPPEPVPYKGPKLKVAIIGAGLAGMSTAVELLDQGHEVDIYDSRTFIGGKVGSFVDRRGNHIEMGLHVFFGCYNNLFRLMKKVGAEKNLLVKDHTHTFINKDGTIGELDFRFPVGAPIHGIRAFLVTNQLKPYDKLRNSLALALSPVVKALVDPDGAMRDIRNLDSISFSDWFLSKGGTRASIQRMWDPVAYALGFIDCDNMSARCMLTIFSLFATKTEASLLRMLKGSPDVYLSGPIKQYITDRGGRIHLRWGCREILYDKSADGETYVTGLAISKATNKKIVKADVYVAACDVPGIKRLLPKEWRESRFFNDIYELEGVPVVTVQLRYNGWVTELQDIELARQLKRAVGLDNLLYTPDADFSCFADLALASPADYYIEGQGTLLQCVLTPGDPYMRMPNDKIIEKVAMQVTELFPSSRGLEVTWSSVVKIAQSLYREAPGKDPFRPDQKTPIKNFFLAGSYTKQDYIDSMEGATLSGRQASSYICDAGEELAELNKKLSSSATAVPDELSLV	not soluble
